Experimental data published in paper PMC4368505 (Nature, 2015).

T1: Drosophila Orc3 (amino acid residues 47-721) of the trimmed ORC core (Drosophila, UniProt Q7K2L1 47-721)
T1 sequence (looked up): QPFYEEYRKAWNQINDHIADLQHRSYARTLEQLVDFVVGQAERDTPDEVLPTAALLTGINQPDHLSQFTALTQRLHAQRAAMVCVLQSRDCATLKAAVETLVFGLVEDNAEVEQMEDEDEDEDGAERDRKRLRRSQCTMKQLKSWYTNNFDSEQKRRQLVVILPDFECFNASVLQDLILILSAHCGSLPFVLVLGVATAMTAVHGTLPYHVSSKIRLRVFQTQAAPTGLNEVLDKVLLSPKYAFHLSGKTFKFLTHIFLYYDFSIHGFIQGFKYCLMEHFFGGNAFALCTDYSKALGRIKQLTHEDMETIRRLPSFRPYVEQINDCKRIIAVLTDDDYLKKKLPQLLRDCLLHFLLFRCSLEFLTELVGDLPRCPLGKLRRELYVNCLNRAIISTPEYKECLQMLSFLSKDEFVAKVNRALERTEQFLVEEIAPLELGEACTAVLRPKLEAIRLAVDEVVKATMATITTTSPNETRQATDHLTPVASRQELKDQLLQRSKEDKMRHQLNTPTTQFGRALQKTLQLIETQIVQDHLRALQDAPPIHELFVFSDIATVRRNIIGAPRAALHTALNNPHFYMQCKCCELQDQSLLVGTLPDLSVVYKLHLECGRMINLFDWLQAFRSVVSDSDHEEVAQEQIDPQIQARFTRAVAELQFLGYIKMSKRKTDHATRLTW

B1: Drosophila Orc5 (amino acid residues 1-460) (natural protein, UniProt Q24169 1-460, looked up)
chain: MEAICSSLEPLFPCREAAIETLGELIGDSSETYPSAIYLFGHSGTGKTALTRAFLKECGKRQNVRTAHLNAIECYTTKIMLEILLDSLAPDQGDALKVDNMLDFVEQLRRQAATRVEDQGFLIAVDNAERLRDMDANVLPVLLRLQELTNLNLCVILLSQLPFEKFYNKTGLSEIVCLHLAQYNKAETQRILGSDFQQVRNQLLEQFAQDKKRLEICQEAVTEDFYNNYLNLFLSVFYKACRDVPELQLTARKCLSTYLEPVLDGTVDATDISRLWRHIAGPLRSALTQIYMRIEKPAEEVEDFTAIEDQSVRKLAQSLELPYYAKFLLIAAFLASHNAAKQDKRLFVKHHGKQRKRMQTVNARAKTTEKMSTTLGPKSFSIDRLLAIFYAILEEKVGLTCNLLSQISTLVHLNLLSFVSGEQNIMEGSARLQCTIGLEFVLQIGKVVGFNVRQYLCDFM
B2: Drosophila Orc2 (amino acid residues 266-618) of the trimmed ORC core (domain or fragment, UniProt Q24168 266-618, looked up)
chain: QSARAKKSNEFVPESDGYFHSHASSKILTSDHTLDRLKNPRLAADRVFSLLSEIKTSAEHEGSINAIMEEYRSYFPKWMCILNEGFNILLYGLGSKHQLLQSFHREVLHKQTVLVVNGFFPSLTIKDMLDSITSDILDAGISPANPHEAVDMIEEEFALIPETHLFLIVHNLDGAMLRNVKAQAILSRLARIPNIHLLASIDHINTPLLWDQGKLCSFNFSWWDCTTMLPYTNETAFENSLLVQNSGELALSSMRSVFSSLTTNSRGIYMLIVKYQLKNKGNATYQGMPFRDLYSSCREAFLVSSDLALRAQLTEFLDHKLVKSKRSVDGSEQLTIPIDGALLQQFLEEQEKK
B3: Drosophila Orc1 (amino acid residues 533-924) of the trimmed ORC core (domain or fragment, UniProt O16810 533-924, looked up)
chain: SPSMQQRTDLPAKDSSKSELQLAREQLHVSVVPKSLPCREREFENIYAFLEGKIQDQCGGCMYVSGVPGTGKTATVTGVIRTLQRMAKQNELPAFEYLEINGMRLTEPRQAYVQIYKQLTGKTVSWEQAHALLEKRFTTPAPRRVTTVLLVDELDILCNRRQDVVYNLLDWPTKSAAKLVVVTIANTMDLPERLLMGKVTSRLGLTRLTFQPYSHKQLQEIVTARLGGSETFKGEAVQLVARKVAAVSGDARRALDICRRATEIADTAAVKCVTMLHVQQALAEMIASAKVQAIRNCSRMEQIFLQAIAAEVTRTGVEETTFMGVYQQVETIAAFMGVTFPPPGRALRLCSKLGAERLIISEHSRNDLFQKILLNVSADDIHYALRVEEMVN
B4: Drosophila Orc4 (amino acid residues 1-459) (natural protein, UniProt Q9W102 1-459, looked up)
chain: MPEADRELVSIRRFLKERLQRDYTTLRGYAKERSNVRLLLQRTAEMGESNSLLLLGPRGSGKTTLINSVLADLLPNKSFGENTLIVHLDGNLHTDDRVALKSITVQMQLENAADGKVFGSFAENLAFLLQCLKAGGKHSKSVIFILEEFDLFCAHHNQTLLYNLFDVSQSAQAPICVLGVTCRLDVIELLEKRVKSRFSHRQVFLFPSLRRFEDYVDLCRDLLSLPTGNSLLLAAEKIYNLQNIQSGALYFSRNHFDPGEYGFSPRLRDAWNKQICKVLATQQARSTLQALHDFDISEAYLKNFLFRLVAHLRPQSPHITAEKMAAVGSQFEGDDKIELLCGLSVLELCLIIAIKHHSQIYDRDSFNFEIIYARFSKFAKVSTTMQAVERSIVLKAFEHLRIAELIMPLTGGAGGGVGKVQKEFEMHKLALTYSQIHHCMQRYQALPTEVAQWAQSSLI

How the values were obtained:
Experiment in all cases: crystal structure
[1] = biological target: T1, Drosophila Orc3 (amino acid residues …)
[2] = biological target: B3
[3] = biological target: B4
[4] = biological target: B1

binding result [1] | binding result [2] | binding result [3] | binding result [4] | Binder
binds |  |  |  | B1
binds | binds |  |  | B2
binds |  | binds |  | B3
 |  |  | binds | B4
